Laboratory results from patent US20030092067A1.

Legend:
[1] = molecular target: Abz-Bip-Ala-hLeu-Lys-Tyr(NO2)-Asp-NH2
[2] = molecular target: Abz-Val-Ala-Hyp-Ser-Tyr(NO2)-Asp-NH2
[3] = molecular target: Abz-Bip-Ala-hLeu-Tyr-Tyr(NO2)-Asp-NH2
[4] = molecular target: Bz(2-carboxy)-Val-Ala-Nle-Ser-Tyr(NO2)-NH2
[5] = molecular target: Abz-Val-Ala-hLeu-Ser-Tyr(NO2)-Asp-NH2
[6] = molecular target: n-Bu-Val-Ala-Nle-Ser-Tyr(NO2)-NH2
[7] = molecular target: Abz-Val-Cha-hLeu-Ser-Tyr(NO2)-Asp-NH2
[8] = molecular target: Abz-Bip-Ala-hLeu-Leu-Tyr(NO2)-Asp-NH2
[9] = molecular target: Abz-Val-Aib-Nle-Ser-Tyr(NO2)-Asp-NH2
[10] = molecular target: Abz-ACH-Ala-hLeu-Ser-Tyr(NO2)-Asp-NH2
[11] = molecular target: Abz-Val-Lys-hLeu-Ser-Tyr(NO2)-Asp-NH2
[12] = molecular target: Bz-Val-Ala-Nle-Ser-Tyr(NO2)-NH2 (second printing, row r51)
[13] = molecular target: Bz-Val-Ala-Statine-Ser-eAha-NH2
[14] = molecular target: Abz-Val-Ala-Nle-Ser-Ala-Asp-NH2
[15] = molecular target: Abz-Val-(NMe)Ala-Nle-Ser-Tyr(NO2)-ASP-NH2
[16] = molecular target: Abz-Val-Tic-hLeu-Ser-Tyr(NO2)-Asp-NH2
[17] = molecular target: Abz-3pyr-Ala-hLeu-Ser-Tyr(NO2)-Asp-NH2
[18] = molecular target: Abz-p.Aba-Nle-Ser-Tyr(NO2)-Asp-NH2
[19] = molecular target: nBu-D.Ser-D.Nle-D.Ala-D.Val-p.Aba-NH2
[20] = molecular target: H-Val-Ala-Nle-Ser-Tyr(NO2)-NH2
[21] = molecular target: H-Ala-Nle-Ser-Tyr(NO2)-Asp-NR2
[22] = molecular target: Abz-Tic-Ala-hLeu-Ser-Tyr(NO2)-Asp-NH2
[23] = molecular target: Abz-Nle-Ser-Tyr(NO2)-Asp-NH2
[24] = molecular target: Abz-Leu-Ala-hLeu-Ser-Tyr(NO2)-Asp-NH2
[25] = molecular target: Abz-Bip-Ala-hLeu-Cha-Tyr(NO2)-Asp-NH2
[26] = molecular target: Abz-Deg-Ala-Nle-Ser-Tyr(NO2)-Asp-NH2
[27] = molecular target: Abz-Val-Ala-Nle-Ser-eAHA-Asp-NH2
[28] = molecular target: Abz-Phe-Val-Ala-Nle-Ser-Tyr(NO2)-Asp-NH2
[29] = molecular target: Abz-Val-ACH-hLeu-Ser-Tyr(NO2)-Asp-NH2
[30] = molecular target: Abz-Met(O)-Ala-hLeu-Ser-Tyr(NO2)-Asp-NH2
[31] = molecular target: Abz-Ala-Nle-Ser-Tyr(NO2)-Asp-NH2
[32] = molecular target: Abz-Cmpi-Nle-Ser-Tyr(NO2)-ASP-NH2
[33] = molecular target: Abz-Bip-Ala-hLeu-Bu^tGly-Tyr(NO2)-Asp-NH2
[34] = molecular target: Chex-Val-Ala-Nle-Ser-Tyr(NO2)-NH2
[35] = molecular target: Abz-1.Naph-Val-Ala-Nle-Ser-Tyr(NO2)-Asp-NH2
[36] = molecular target: H-Ala-Nle-Ser-Tyr(NO2)-ASP-NH2
[37] = molecular target: Abz-Val-2Nal-hLeu-Ser-Tyr(NO2)-Asp-NH2
[38] = molecular target: Abz-Val-3pyr-hLeu-Ser-Tyr(NO2)-Asp-NH2
[39] = molecular target: Abz-Val-ACP-hLeu-Ser-Tyr(NO2)-Asp-NH2
[40] = molecular target: Abz-Val-Ala-(NMe)Nle-Ser-Tyr(NO2)-Asp-NH2
[41] = molecular target: Abz-Lys-Val-Ala-Nle-Ser-Tyr(NO2)-Asp-NH2
[42] = molecular target: Abz-Val-DLys-hLeu-Ser-Tyr(NO2)-Asp-NH2
[43] = molecular target: Abz-Bip-Ala-hLeu-Ser-Tyr(NO2)-Asp-NH2
[44] = molecular target: Abz-Val-Ala-Nle-Ser-Tyr(NO2)-Asp-NH2
[45] = molecular target: Abz-3.Pyr-Val-Ala-Nle-Ser-Tyr(NO2)-Asp-NH2
[46] = molecular target: Bz-Val-Ala-Nle-Ser-Tyr(NO2)-NH2
[47] = molecular target: Abz-Bip-Ala-hLeu-Met(O)-Tyr(NO2)-Asp-NH2
[48] = molecular target: Abz-2.Naph-Val-Ala-Nle-Ser-Tyr(NO2)-Asp-NH2
[49] = molecular target: Abz-Cha-Ala-hLeu-Ser-Tyr(NO2)-Asp-NH2
[50] = molecular target: Abz-Lys-Ala-hLeu-Ser-Tyr(NO2)-Asp-NH2
[51] = molecular target: Abz-Val-Ala-His-Ser-Tyr(NO2)-Aso-NH2
[52] = molecular target: Abz-Gln-Ala-hLeu-Ser-Tyr(NO2)-Asp-NH2
[53] = molecular target: Abz-Val-Ala-Nle-Ser-Tyr(NO2)-NH2
[54] = molecular target: Abz-Bip-Val-Ala-Nle-Ser-Tyr(NO2)-Asp-NH2
[55] = molecular target: Abz-Val-DGln-hLeu-Ser-Tyr(NO2)-Asp-NH2
[56] = molecular target: Ac-Val-Ala-Nle-Ser-Tyr(NO2)-NH2
[57] = molecular target: Abz-Val-Ala-Nle-Ser-Tyr-Asp-NH2
[58] = molecular target: Ac-Val-Ala-Nie-Ser-Tyr(NO2)-Asp-NH2
[59] = molecular target: Abz-Val-Ala-ACH-Ser-Tyr(NO2)-Asp-NH2
[60] = molecular target: Abz-Val-Ala-ACP-Ser-Tyr(NO2)-Asp-NH2
[61] = molecular target: Abz-Val-Ala-3pyr-Ser-Tyr(NO2)-Asp-NH2
[62] = molecular target: Abz-Val-Ala-Lys-Ser-Tyr(NO2)-Asp-NH2
[63] = molecular target: Abz-Val-Ala-Thr-Ser-Tyr(NO2)-Asp-NH2
[64] = molecular target: Abz-Val-Ala-Gln-Ser-Tyr(NO2)-Asp-NH2
[65] = molecular target: Abz-Hyp-Val-Ala-Nle-Ser-Tyr(NO2)-Asp-NH2
[66] = molecular target: Abz-Val-Ala-Nle-Ser-Lys-Asp-NH2
[67] = molecular target: Abz-Bip-Ala-hLeu-Abu-Tyr(NO2)-Asp-NH2
[68] = molecular target: Abz-2Nal-Ala-hLeu-Ser-Tyr(NO2)-Asp-NH2
[69] = molecular target: Abz-DVal-Ala-hLeu-Ser-Tyr(NO2)-Asp-NH2
[70] = molecular target: Abz-Val-Ala-DNle-Ser-Tyr(NO2)-Asp-NH2
[71] = molecular target: Piv-Val-Ala-Nle-Ser-Tyr(NO2)-NH2
[72] = molecular target: Abz-Val-DAla-hLeu-Ser-Tyr(NO2)-Asp-NH2
[73] = molecular target: Abz-Bip-Ala-hLeu-Thr-Tyr(NO2)-Asp-NH2
[74] = molecular target: Abz-Val-Ala-Cha-Ser-Tyr(NO2)-Asp-NH2
[75] = molecular target: Abz-Glu-Val-Ala-Nle-Ser-Tyr(NO2)-Asp-NH2
[76] = molecular target: Abz-Val-Ala-Aib-Ser-Tyr(NO2)-Asp-NH2
[77] = molecular target: Abz-Bip-Ala-hLeu-3pyr-Tyr(NO2)-Asp-NH2
[78] = molecular target: H-Val-Ala-Nle-Ser-TyrNO2-ASp-NH2
[79] = molecular target: Abz-Val-Met(O)-hLeu-Ser-Tyr(NO2)-Asp-NH2
[80] = molecular target: Abz-Bip-Ala-hLeu-Asp-Tyr(NO2)-Asp-NH2
[81] = molecular target: Abz-Val-Ala-Nle-Ser-Phe-Asp-NH2
[82] = molecular target: Abz-Bip-Ala-hLeu-Hyp-Tyr(NO2)-Asp-NH2

B1: Der pI (protein)
chain: TNACSINGNAPAEIDLRQMRTVTPIRMQGGCGSCWAFSGVAATESAYLAYRNQSLDLAEQELVDCASQHGCHGDTIPRGIEYIQHNGVVQESYYRYVAREQSCRRPNAQRFGISNYCQIYPPNVNKIREALAQTHSAIAVIIGIKDLDAFRHYDGRTIIQRDNGYQPNYHAVNIVGYSNAQGVDYWIVRNSWDTNWGDNGYGYFAANIDLMMIEEYPYVVIL
[1]
  Measured Km: 2 µM
[2]
  Measured Km (µM): NS
[3]
  Measured Km: 3 µM
[4]
  Measured Km (µM): NM^a
  cleavage rate (rank order): Bz>n-But>Piv>Bz(2-carboxy)>Abz
[5]
  Measured Km: 4 µM
[6]
  Measured Km (µM): NM^a
  cleavage rate (rank order): Bz>n-But>Piv>Bz(2-carboxy)>Abz
[7]
  Measured Km (µM): NS
[8]
  Measured Km: 3.7 µM
[9]
  Measured Km (µM): NS
[10]
  Measured Km (µM): NS
[11]
  Measured Km: 35 µM
[12]
  Measured Km (µM): NM^a
[13]
  Measured Km (µM): NS
[14]
  Measured Km (µM): NM
[15]
  Measured Km (µM): NS
[16]
  Measured Km (µM): NS
[17]
  Measured Km: > 10 µM
[18]
  Measured Km (µM): NS
[19]
  Measured Km (µM): NS
[20]
  Measured Km (µM): NS
[21]
  Measured Km (µM): NS
[22]
  Measured Km (µM): NS
[23]
  Measured Km (µM): NS
[24]
  Measured Km: 18 µM
[25]
  Measured Km: 2.5 µM
[26]
  Measured Km (µM): NS
[27]
  Measured Km (µM): NM
[28]
  Measured Km (µM): NM
[29]
  Measured Km (µM): NS
[30]
  Measured Km: 20 µM
[31]
  Measured Km (µM): NM
[32]
  Measured Km (µM): NS
[33]
  Measured Km: 4 µM
[34]
  Measured Km (µM): NM^a
[35]
  Measured Km: 17 µM
[36]
  Measured Km (µM): NS
[37]
  Measured Km (µM): NS
[38]
  Measured Km (µM): NS
[39]
  Measured Km (µM): NS
[40]
  Measured Km (µM): NS
[41]
  Measured Km: 15 µM
[42]
  Measured Km (µM): NS
[43]
  Measured Km: 2.5 µM
[44]
  Measured Km: 12 µM
  kcat/Km: 35000 M⁻¹ s⁻¹
[45]
  Measured Km (µM): NM
[46]
  Measured Km (µM): NM^a
  cleavage rate (rank order): Bz>n-But>Piv>Bz(2-carboxy)>Abz
[47]
  Measured Km: 5 µM
[48]
  Measured Km (µM): NM
[49]
  Measured Km: 9 µM
[50]
  Measured Km: > 15 µM
[51]
  Measured Km: > 20 µM
[52]
  Measured Km: 12 µM
[53]
  Measured Km (µM): NM
  cleavage rate (rank order): Bz>n-But>Piv>Bz(2-carboxy)>Abz
[54]
  Measured Km: 10 µM
[55]
  Measured Km (µM): NS
[56]
  Measured Km (µM): NS
[57]
  Measured Km (µM): NM
[58]
  Measured Km (µM): NS
[59]
  Measured Km (µM): NS
[60]
  Measured Km (µM): NS
[61]
  Measured Km: 10 µM
[62]
  Measured Km: 14 µM
[63]
  Measured Km: 6 µM
[64]
  Measured Km: 6 µM
[65]
  Measured Km (µM): NS
[66]
  Measured Km (µM): NM
[67]
  Measured Km: 1.7 µM
[68]
  Measured Km: 15 µM
[69]
  Measured Km (µM): NS
[70]
  Measured Km (µM): NS
[71]
  Measured Km (µM): NM^a
  cleavage rate (rank order): Bz>n-But>Piv>Bz(2-carboxy)>Abz
[72]
  Measured Km (µM): NS
[73]
  Measured Km: 2.5 µM
[74]
  Measured Km: 5 µM
[75]
  Measured Km: 20 µM
[76]
  Measured Km (µM): NS
[77]
  Measured Km: 4 µM
[78]
  Measured Km (µM): NS
[79]
  Measured Km: 35 µM
[80]
  Measured Km: 5 µM
[81]
  Measured Km (µM): NM
Abz-Val-Ala-Nle-Ser-NH2
  Measured Km (µM): NM
[82]
  Measured Km: 4 µM
